Reference: patent EP1073891B1, “METHOD OF PREDICTING RECEPTOR MODULATING ACTIVITY” (Duke University, priority 1998, dated 1999)
Where two headings read alike, the source gives them in different places. Values belong to the compound of their own block, whether it stands above or below them.

Assays:
[1] = target: T1, full length ER-α (Homo sapiens, UniProt P03372); experiment: Affinity selection and phage ELISA of X7-LXXLL-X7 library on estradiol treated ER (Example 101.1); type: binding
T1 construct: Baculovirus expressed full length ER-α; host or cells: baculovirus expression
T1 sequence (P03372 1-595): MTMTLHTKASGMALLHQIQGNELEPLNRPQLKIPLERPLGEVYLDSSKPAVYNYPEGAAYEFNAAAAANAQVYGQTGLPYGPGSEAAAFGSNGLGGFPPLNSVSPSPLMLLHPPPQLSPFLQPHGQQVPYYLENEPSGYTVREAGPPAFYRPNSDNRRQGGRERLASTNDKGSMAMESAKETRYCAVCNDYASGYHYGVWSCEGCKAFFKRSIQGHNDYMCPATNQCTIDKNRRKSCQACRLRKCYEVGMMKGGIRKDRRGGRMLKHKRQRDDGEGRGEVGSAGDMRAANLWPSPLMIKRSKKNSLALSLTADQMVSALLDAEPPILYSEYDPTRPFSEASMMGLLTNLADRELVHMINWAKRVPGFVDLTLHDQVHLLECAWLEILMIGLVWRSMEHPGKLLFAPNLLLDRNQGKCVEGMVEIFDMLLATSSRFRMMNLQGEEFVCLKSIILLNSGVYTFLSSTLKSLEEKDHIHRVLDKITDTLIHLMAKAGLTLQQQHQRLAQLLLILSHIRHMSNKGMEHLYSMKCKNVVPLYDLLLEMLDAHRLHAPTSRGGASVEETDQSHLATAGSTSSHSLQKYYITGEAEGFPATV
Method: M13 phage-based random peptide libraries were incubated with target proteins in the wells, ER binding phage were retained while the unbound phage were washed away. Bound phage were eluted by low pH buffer, amplified in DH5αF' cells and subjected to subsequent round of selection. The selection processes were repeated 2-3 times to enrich for EB bonding phage. Individual phage were plaque purified, amplified and their binding characteristics were examined by ELISA.

[2] = target: T2, ERβ (Homo sapiens, UniProt Q92731); experiment: Time resolved fluorescence (TRF) binding of europium-streptavidin peptide conjugates in the presence of modulators; parameters: purchased PanVera Corporation, Madison, WI; settings: for Equiv. / EC50: ERβ; for Equiv.: positive: % of maximum stimulation by the reference modulator, negative: % of reduction by ICI 182,780
T2 sequence (Q92731 whole entry): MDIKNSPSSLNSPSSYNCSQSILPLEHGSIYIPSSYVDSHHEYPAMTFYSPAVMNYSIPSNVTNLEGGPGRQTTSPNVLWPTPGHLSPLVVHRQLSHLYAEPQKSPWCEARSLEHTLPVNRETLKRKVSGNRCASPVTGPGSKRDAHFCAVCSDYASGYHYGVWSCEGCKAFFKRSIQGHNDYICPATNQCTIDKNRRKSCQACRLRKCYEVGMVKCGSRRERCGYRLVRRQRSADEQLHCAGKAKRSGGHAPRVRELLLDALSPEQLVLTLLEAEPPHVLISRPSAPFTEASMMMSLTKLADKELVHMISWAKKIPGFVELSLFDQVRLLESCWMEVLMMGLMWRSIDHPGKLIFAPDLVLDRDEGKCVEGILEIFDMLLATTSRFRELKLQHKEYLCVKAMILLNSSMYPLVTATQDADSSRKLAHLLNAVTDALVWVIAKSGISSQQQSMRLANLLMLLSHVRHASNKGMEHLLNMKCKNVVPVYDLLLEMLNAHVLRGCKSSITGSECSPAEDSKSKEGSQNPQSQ

[3] = target: T2, ERβ; experiment: Phage ELISA / fingerprint on ER immobilized on biotinylated ERE (Examples 2.3-2.5); settings: probe α/β I (LXXLL motif)
Method: Immulon 4 96-well plates were coated with streptavidin in 0.1 sodium bicarbonate.
All of the phage were classified based on their ability to bind to ER a and ER β, in the presence or absence of SERMs. These assays were conducted by phage ELISA. In essence, plastic plates were coated with streptavidin (sigma). Biotinylated-EREs (see above) were conjugated to the solid-phase streptavidin, and ER to the ERE. Bound phage were detected using horseradish peroxidase-labeled anti-(M13 phage) antibodies.
The ER was then incubated with 100µl TBST or TBST containing 1 µM of the appropriate modulator. Phage (40µl), from a 5 hour culture grown in DH5αF' cells, was added directly to the wells and incubated 30 minutes at room temperature. Unbound phage were then removed by 5 washes with TBST. Bound phage were detected using an anti-M13 antibody coupled to horseradish peroxidase (HRP). Assays were developed with 2,2'-azinobis(3-ethylbenzothiazoline)-6 sulfonic acid (ABTS) and hydrogen peroxide for 10 minutes and then stopped by the addition of 1% SDS.
The binding activity is indicated on a semiquantitative scale of 0 to 7+.
The probes were used to fingerprint the interaction of ER α and ER β with a variety of different SERMs by the assay method previously described (using ERE). Next, we evaluated the binding of each of the probes to ERα and ERβ in the presence of a variety of ER ligands that have distinct biological activities. The goal was to determine if each of the ligands would induce a conformational change in the ER that would alter the binding pattern of the probes, thus producing a "fingerprint" for each compound. […] Buffer only (apo-receptor) and progesterone were included as controls.
Phage were amplified from plaques in DHSα F' for 5 hours. Bound phage were detected as described previously. Assays were developed with ABTS (2,2'-azinobis(3-ethylbenzthiazoline-sulfonic acid) for 10 minutes.

[4] = target: T3, estrogen receptor α (ERα) (Homo sapiens, UniProt P03372); experiment: LexA yeast two hybrid, β-galactosidase activity assay (Example 3); type: cell-based
T3 construct: The full length estrogen receptor was subcloned in frame into the EcoRI and XhoI sites of pJG4-5; expressed in transfected cells; host or cells: Saccharomyces cerevisiae EGY48
T3 sequence (P03372 1-595): T1 sequence (P03372 1-595)
Excerpt: The LexA system that we employ utilizes a bacterial DNA binding protein domain, LexA, and a bacterially derived transcriptional activation sequence, B42. Proteins or peptides of interest are fused in frame with these domains and expressed using episomal plasmids in a yeast cell. The interactions between these proteins/peptides of interest are registered by monitoring the level of the reporter gene product, β-galactosidase, by an enzymatic assay. The differences in the levels of β-galactosidase activities reflect the relative strengths of the protein interactions.
The yeast strains used in this study was EGY48 (MAT a trp1 his3 ura3 leu2::61exAops-LEU2) purchased from OriGeneTechnologies for yeast two hybrid analysis. This strain contains 6 LexA operators upstream of the LEU2 gene in the yeast genome and provides high sensitivity in detecting protein-protein interactions in the LexA two hybrid system. The plasmids used in this study were pEG202 (LexA-DNA binding domain), pJG4-5 (B42-activation domain), and the plasmid containing a β-galactosidase reporter, pJK103 (OriGene Technologies). The full length estrogen receptor was subcloned in frame into the EcoRI and XhoI sites of pJG4-5 to generate an ERα-B42 activation domain fusion. ERα was subcloned in the activation domain plasmid because ERα was able to autoactivate reporters when fused to the LexA DNA binding domain.
The peptide sequences used in this study were generated from synthetic oligos filled in by T7 Sequenase (Life Science) and subcloned into the EcoRI-XhoI sites of pEG202. The synthetic oligos were: [formula] [formula] [formula] [formula] The complementary synthetic oligo used to generate double stranded DNA was 3'XhoPrim, 5'-[…]. Each 5'-oligo was annealed to the 3'-oligo by heating to 90 °C for 15 minutes and cooled slowly to 35 °C. T7 sequenase was added and the fill-in reaction allowed to proceed at 30 °C for 30 minutes. The reaction was terminated by heat denaturing the enzyme at 65 °C for 1 hour, restriction digests were performed and the resulting DNA fragments subcloned into pEG202 to generate peptide-LexA DNA binding domain fusions.
The culture was diluted to ~2x10^6 cells/ml in the same media and allowed to grow at 30 °C until the cultures reached a density of ~1x10^7 cells/ml (∼4 hours). The yeast cells were pelleted by centurifugation, washed with extraction buffer (60 mM Na2HPO4, 40 mMNaH2PO4, 10 mM KCl, 1 mM MgSO4, 1mM PMSF, 7 mM 2-mercaptoethanol) and suspended in 200 µl of extraction buffer. 100 µl of acid-washed glass beads were added and cells were lysed by vigorous agitation for 10 minutes at 4 °C. Cellular debris was pelleted by centrifugation and the supernatant transferred to a clean tube. 10 µg of total cellular protein was diluted into complete Z buffer (60 mM Na2HPO4, 40 mMNaH2PO4 , 10 mM KCl, 1 mM MgSO4, 7 mM 2-mercaptoethanol) to a volume of 100 µl in a 96-well microplate. 80 µg of o-nitrophenyl-β-D-pyranoside (ONPG) in 20 µl was added to each well to initiate color development.
10µg of each protein extract was assayed for β-galactosidase activity using o-nitrophenyl-b-D-pyranoside as substrate. Activity units are defied as 1000* Abs405/minutes/mg/protein.
Values are in beta-galactosidase units (MOD/min/mg)

[5] = target: T4, ERα (Homo sapiens, UniProt P03372); experiment: Phage ELISA / fingerprint on ER immobilized on biotinylated ERE (Examples 2.3-2.5); type: binding; parameters: purchased PanVera Corporation, Madison, WI; key to binding activity, ERα and buffer / binding activity, ERα and estradiol / binding activity, ERα and tamoxifen / binding of peptide, Class Specific Fingerprint on ERα: semiquantitative scale of 0 to 7+; 1+: semiquantitative scale of 0 to 7+; 2+: semiquantitative scale of 0 to 7+; 3+: semiquantitative scale of 0 to 7+; 4+: semiquantitative scale of 0 to 7+; 5+: semiquantitative scale of 0 to 7+; 6+: semiquantitative scale of 0 to 7+; semiquantitative scale of 0 to 7+; settings: for binding activity, ERα and estradiol: ERα and estradiol (1 µM); for binding activity, ERα and tamoxifen: ERα and tamoxifen (4-OH tamoxifen, 1 µM)
T4 sequence (P03372 1-595): T1 sequence (P03372 1-595)

[6] = target: T2, ERβ; experiment: as above; type: binding; parameters: purchased PanVera Corporation, Madison, WI; key: semiquantitative scale of 0 to 7+; 1+: semiquantitative scale of 0 to 7+; 2+: semiquantitative scale of 0 to 7+; 3+: semiquantitative scale of 0 to 7+; 4+: semiquantitative scale of 0 to 7+; 5+: semiquantitative scale of 0 to 7+; 6+: semiquantitative scale of 0 to 7+; semiquantitative scale of 0 to 7+; settings: for binding activity, ERβ and Estradiol: ERβ and Estradiol (1 µM); for binding activity, ERβ and tamoxifen: ERβ and tamoxifen (4-OH tamoxifen, 1 µM)
[7] = TRF binding assay, in the presence of the compound

Compound: SSNHQSRLIELLSR [ER4]
binding to ligand occupied ER ([1]; agonist, partial agonist or antagonist occupied ER): binds to agonist occupied ER but not partial agonist- or antagonist-occupied ER

Compound: CC/C(=C(\c1ccc(O)cc1)c1ccc(OCCN(C)C)cc1)c1ccccc1 [4-OH Tamoxifen, 4-OH tamoxifen]
binding of the β I probe to ER β [2]: enhanced
binding of the probe α/β I to ER β in the presence of the ligand [3]: prevented the binding

Compound: CC/C(=C(\c1ccc(O)cc1)c1ccc(/C=C/C(=O)O)cc1)c1ccccc1 [GW 7604]
Equiv. ([2]; peptide probe α/βI): 0%
Equiv. ([2]; peptide probe α/βV): 0%

Compound: O=C(c1ccc(OCCN2CCCCC2)cc1)c1c(-c2ccc(O)cc2)sc2cc(O)ccc12 [raloxifene]
binding of the β I probe to ER β [2]: reduced
binding of the probe α/β I to ER β in the presence of the ligand [3]: prevented the binding

Compound: C[C@]12CC[C@@H]3c4ccc(O)cc4C[C@@H](CCCCCCCCC[S+]([O-])CCCC(F)(F)C(F)(F)F)[C@H]3[C@@H]1CC[C@@H]2O (stereo partly drawn) [ICI 182,780]
binding of the probe α/β I to ER β in the presence of the ligand [3]: prevented the binding

Compound: SRHGILWDLLQGDSR [Peptide 2E-β]
binding activity, ERα and buffer [5]: 6+
binding activity, ERα and estradiol [5]: 7+
binding activity, ERα and tamoxifen [5]: 5+
binding activity, ERβ and Estradiol [6]: 7+
binding activity, ERβ and buffer [6]: 4+
binding activity, ERβ and tamoxifen [6]: 2+

Compound: SRLHDLLLRDESPSR [Peptide 3E-β]
binding activity, ERα and buffer [5]: 4+
binding activity, ERα and estradiol [5]: 5+
binding activity, ERα and tamoxifen [5]: 4+
binding activity, ERβ and Estradiol [6]: 6+
binding activity, ERβ and buffer [6]: 3+
binding activity, ERβ and tamoxifen [6]: 1+

Compound: SRLHCLLDSSYCSSR [Peptide 1b-β]
binding activity, ERα and buffer [5]: 4+
binding activity, ERα and estradiol [5]: 7+
binding activity, ERα and tamoxifen [5]: 3+
binding activity, ERβ and Estradiol [6]: 7+
binding activity, ERβ and buffer [6]: 7+
binding activity, ERβ and tamoxifen [6]: 2+

Compound: CC/C(=C(/CC)c1ccc(O)cc1)c1ccc(O)cc1 [DES, diethylstilbestrol]
binding of the β I probe to ER β [2, 7]: reduction

Compound: CCN(CC)CCOc1ccc(C(=C(Cl)c2ccccc2)c2ccccc2)cc1 [Clomiphene, clomiphene]
binding of the β I probe to ER β [2, 7]: reduced
EC50 ([2]; peptide probe α/βIII): 82.2 nM
Equiv. ([2]; peptide probe α/βIII): 34%
Equiv. ([2]; peptide probe α/βIV): 0%
EC50 ([2]; peptide probe α/βV): 150 nM
Equiv. ([2]; peptide probe α/βV): 13%
EC50 ([2]; peptide probe βI): 135 nM
Equiv. ([2]; peptide probe βI): -62%
EC50 ([2]; peptide probe βIII): 123 nM
Equiv. ([2]; peptide probe βIII): -61%
binding of the probe α/β I to ER β in the presence of the ligand [3]: prevented the binding

Continued, values first:

Peptide Interactions with ER Alpha, beta-galactosidase units, value ([4]; 4-hydroxy Tamoxifen): 20267 MOD/min/mg
Peptide Interactions with ER Alpha, beta-galactosidase units, value ([4]; Estradiol): 38883 MOD/min/mg
Peptide Interactions with ER Alpha, beta-galactosidase units, value ([4]; No Addition): 30983 MOD/min/mg
Peptide Interactions with ER Alpha, beta-galactosidase units, value ([4]; Tamoxifen Citrate): 11947 MOD/min/mg
affinity for ERα ([1]; affinity-selected peptide): high affinity
Compound: GHEPLTLLERLLMDDKQAV [Peptide F6]

binding activity, ERα and buffer [5]: 2+
binding activity, ERα and estradiol [5]: 2+
binding activity, ERα and tamoxifen [5]: 2+
binding activity, ERβ and Estradiol [6]: 7+
binding activity, ERβ and buffer [6]: 4+
binding activity, ERβ and tamoxifen [6]: 1+
Compound: SSIKDFPNLISLLSR [Peptide 12E-β]

binding activity, ERα and buffer [5]: 7+
binding activity, ERα and estradiol [5]: 6+
binding activity, ERα and tamoxifen [5]: 7+
binding activity, ERβ and Estradiol [6]: 3+
binding activity, ERβ and buffer [6]: 6+
binding activity, ERβ and tamoxifen [6]: 7+
Compound: SRLNGVFCHDSSDLWVCSR [Peptide 18t-β]

binding activity, ERα and buffer [5]: 4+
binding activity, ERα and estradiol [5]: 6+
binding activity, ERα and tamoxifen [5]: 3+
binding activity, ERβ and Estradiol [6]: 7+
binding activity, ERβ and buffer [6]: 6+
binding activity, ERβ and tamoxifen [6]: 2+
Compound: SSRTLYCHLTSSNPEWCSR [Peptide 27E-β]

binding activity, ERα and buffer [5]: 2+
binding activity, ERα and estradiol [5]: 2+
binding activity, ERα and tamoxifen [5]: 3+
binding activity, ERβ and Estradiol [6]: 2+
binding activity, ERβ and buffer [6]: 5+
binding activity, ERβ and tamoxifen [6]: 4+
Compound: SSSGPWRWGLSIESR [Peptide 17b-β]

binding activity, ERα and estradiol [5]: 1+
binding activity, ERα and tamoxifen [5]: 1+
binding activity, ERβ and Estradiol [6]: 7+
binding activity, ERβ and buffer [6]: 7+
binding activity, ERβ and tamoxifen [6]: 7+
Compound: SREGWMGPWRLADSR [Peptide 12t-β]

binding activity, ERα and buffer [5]: 5+
binding activity, ERα and estradiol [5]: 7+
binding activity, ERα and tamoxifen [5]: 5+
binding activity, ERβ and Estradiol [6]: 7+
binding activity, ERβ and buffer [6]: 5+
binding activity, ERβ and tamoxifen [6]: 2+
Compound: SREGLLMRLLIGDSR [Peptide 14E-β]

binding activity, ERα and buffer [5]: 2+
binding activity, ERα and estradiol [5]: 2+
binding activity, ERα and tamoxifen [5]: 7+
binding activity, ERβ and Estradiol [6]: 2+
binding activity, ERβ and buffer [6]: 3+
binding activity, ERβ and tamoxifen [6]: 7+
Compound: SSPGSREWFKDMLSR [Peptide 14t-β]
